Test results reported in PMC6770254.
Several values for one entry are separate records, joined by “and”; a condition that tells them apart may be missing. Equal entries are not always repeated. Values belong to the substance of their own block, whether it stands above or below them.

Assays:
Experiment in all cases: crystal structure; crystals from 2.2 M DL-malic acid, pH 6.5, with or without 5 mM PPi (hanging drop); data at 100 K; oligomers read from the asymmetric unit and the crystal packing
[1] = target: Acinetobacter baumannii pyrophosphatase K149R variant (Acinetobacter baumannii) (UniProt V5VHL7)
[2] = target: Acinetobacter baumannii pyrophosphatase, wild type (Acinetobacter baumannii) (UniProt V5VHL7)
[3] = target: Acinetobacter baumannii pyrophosphatase K30R variant (Acinetobacter baumannii) (UniProt V5VHL7)

Substance: Acinetobacter baumannii pyrophosphatase K149R variant (from UniProt V5VHL7 5-174) (enzyme)
stoichiometry N [1]: 6

stoichiometry N [2]: 6
Substance: Acinetobacter baumannii pyrophosphatase, wild type (from UniProt V5VHL7 5-174) (enzyme)

Substance: Acinetobacter baumannii pyrophosphatase K30R variant (from UniProt V5VHL7 5-174) (enzyme)
stoichiometry N [3]: 6 and 3
